± gives the uncertainty stated by the source.
B1: DnaJ homolog subfamily C member 2, residues 451 to 503; numbered along this chain, Q99543 (parent)
chain: SKNWSEDDLQLLIKAVNLFPAGTNSRWEVIANYMNIHSSSGVKRTAKDVIGKA

Variants of: B1
Assay: abundance fitness (aPCA) (normalised: wild type 0, dead -1); higher = more abundant; growth selection in yeast, the domain comes from the species named
Details: Homo sapiens

**Q.** For SLNWSEDDLQLLIKAVNLFPAGTNSRWEVIANYMNIHSSSGVKRTAKDVIGKA [K2L], which abundance fitness is on record?
**A.** Its abundance fitness is -0.287 ± 0.067.

**Q.** With SDNWSEDDLQLLIKAVNLFPAGTNSRWEVIANYMNIHSSSGVKRTAKDVIGKA [K2D] as the variant, how does the abundance fitness read?
**A.** The abundance fitness was -0.044 ± 0.096.

**Q.** For SKNWSEDDLQLLIKAVNLFPADTNSRWEVIANYMNIHSSSGVKRTAKDVIGKA [G22D], which abundance fitness is on record?
**A.** Its abundance fitness is -0.016 ± 0.078.

**Q.** With SKNWSEDDLQLLIKAVNLFPAATNSRWEVIANYMNIHSSSGVKRTAKDVIGKA [G22A] as the variant, how does the abundance fitness read?
**A.** Its abundance fitness is -0.064 ± 0.056.

**Q.** With SKNWSEDDLQLLIKAVNLFPARTNSRWEVIANYMNIHSSSGVKRTAKDVIGKA [G22R] as the variant, how does the abundance fitness read?
**A.** Its abundance fitness is -0.098 ± 0.056.

**Q.** For SKNWSEDDLQLLIKAVNLFPAGTKSRWEVIANYMNIHSSSGVKRTAKDVIGKA [N24K], which abundance fitness is on record?
**A.** The abundance fitness was -0.013 ± 0.079.

**Q.** For SKNWSEDDLQLLIKAVNLFPAGTHSRWEVIANYMNIHSSSGVKRTAKDVIGKA [N24H], which abundance fitness is on record?
**A.** The abundance fitness was 0.118 ± 0.17.

**Q.** Which abundance fitness does the source give for SKNWSEDDLQLLIKAVNLFPAGTNSRWEVIANYQNIHSSSGVKRTAKDVIGKA [M34Q] here?
**A.** The abundance fitness was -0.696 ± 0.14.

**Q.** Which abundance fitness does the source give for SKNWSEDDLQLLIKAVNLFPAGTNSRWEVIANYMNIHSSSGVKRTAKPVIGKA [D48P] here?
**A.** Its abundance fitness is -1.01 ± 0.12.

**Q.** With SKNWSEDDLQLLIKAVNLFPAGTNSRWEVIANYMNIHSSSGVKRTAKFVIGKA [D48F] as the variant, how does the abundance fitness read?
**A.** Its abundance fitness is -1.06 ± 0.18.

**Q.** For SKNWSEDDLQLLIKAVNLFPAGTNSRWEVIANYMNIHSSSGVKRTAKDVIGGA [K52G], which abundance fitness is on record?
**A.** The abundance fitness was -0.006 ± 0.074.

**Q.** Which abundance fitness does the source give for SKNWSEDDLQLLIKAVNLFPAGTNSRWEVIANYMNIHSSSGVKRTAKDVIGFA [K52F] here?
**A.** Its abundance fitness is -0.329 ± 0.11.

**Q.** With SKNWSTDDLQLLIKAVNLFPAGTNSRWEVIANYMNIHSSSGVKRTAKDVIGKA [E6T] as the variant, how does the abundance fitness read?
**A.** The abundance fitness was -0.175 ± 0.21.

**Q.** Which abundance fitness does the source give for SKNWSEDDLQLLIKAVNLFPAGTNSRWEVIANTMNIHSSSGVKRTAKDVIGKA [Y33T] here?
**A.** The abundance fitness was -0.915 ± 0.097.

**Q.** For SKNWSEDDLQLLIKAVNLFPAGTNSRWEVIANIMNIHSSSGVKRTAKDVIGKA [Y33I], which abundance fitness is on record?
**A.** Its abundance fitness is -1.02 ± 0.2.

**Q.** For SKNWSEDDLQLLIKAVNLFPAGTNSRWEVIANGMNIHSSSGVKRTAKDVIGKA [Y33G], which abundance fitness is on record?
**A.** The abundance fitness was -0.981 ± 0.072.

**Q.** With SKNWSEDDLQLLIKAVNLFPAGTNSRWEVIANYMNIHSSSHVKRTAKDVIGKA [G41H] as the variant, how does the abundance fitness read?
**A.** The abundance fitness was -0.129 ± 0.099.

**Q.** With SKNWSEDDLQLLIKAVNLFPAGTNSRWEVIANYMNIHSSSGVKRTASDVIGKA [K47S] as the variant, how does the abundance fitness read?
**A.** Its abundance fitness is 0.033 ± 0.075.

**Q.** For SKNWSEDDLQLLIKAVNLFPAGTNSRWEVIANYMNIHSSSGVKRTAIDVIGKA [K47I], which abundance fitness is on record?
**A.** Its abundance fitness is -0.017 ± 0.12.

**Q.** Which abundance fitness does the source give for SKNWSEDDLQLLIKAVNLFPAGTNSRWEVIANYMNIHSSSGVKRTAQDVIGKA [K47Q] here?
**A.** Its abundance fitness is 0.057 ± 0.089.

**Q.** For SKNWSEDDLQLLIKAVNLFPAGTNSRWEVIANYMNIHSSSGVKRTAKDVIIKA [G51I], which abundance fitness is on record?
**A.** The abundance fitness was -0.176 ± 0.1.

**Q.** With SKNWSEDDLQLLIKAVNLFPAGTNSRWEVIANYMNIHSSSGVKRTAKDVIWKA [G51W] as the variant, how does the abundance fitness read?
**A.** The abundance fitness was -0.064 ± 0.099.

**Q.** With SKNWSEDDLQLLIKAVNLFPAGTNSRWEVIANYMNIHSSSGVKRTAKDVIHKA [G51H] as the variant, how does the abundance fitness read?
**A.** The abundance fitness was -0.206 ± 0.11.

**Q.** For SKNWSEDDLQLLIKAVNLFPAGTNSRWEVIANYMNIHSSSGVKRTAKDVIMKA [G51M], which abundance fitness is on record?
**A.** The abundance fitness was -0.106 ± 0.084.

**Q.** With SKNWSEDDLQLLIKAANLFPAGTNSRWEVIANYMNIHSSSGVKRTAKDVIGKA [V16A] as the variant, how does the abundance fitness read?
**A.** Its abundance fitness is -0.164 ± 0.062.

**Q.** For SKNWSEDDLQLLIKANNLFPAGTNSRWEVIANYMNIHSSSGVKRTAKDVIGKA [V16N], which abundance fitness is on record?
**A.** The abundance fitness was -0.071 ± 0.096.

**Q.** For SKNWSEDDLQLLIKAGNLFPAGTNSRWEVIANYMNIHSSSGVKRTAKDVIGKA [V16G], which abundance fitness is on record?
**A.** Its abundance fitness is -0.266 ± 0.055.

**Q.** With SKNWSEDDLQLLIRAVNLFPAGTNSRWEVIANYMNIHSSSGVKRTAKDVIGKA [K14R] as the variant, how does the abundance fitness read?
**A.** The abundance fitness was -0.088 ± 0.053.

**Q.** With SKNWSEDDLQLLILAVNLFPAGTNSRWEVIANYMNIHSSSGVKRTAKDVIGKA [K14L] as the variant, how does the abundance fitness read?
**A.** The abundance fitness was -0.317 ± 0.055.

**Q.** Which abundance fitness does the source give for SKNWSEDDLQLLIWAVNLFPAGTNSRWEVIANYMNIHSSSGVKRTAKDVIGKA [K14W] here?
**A.** Its abundance fitness is -0.602 ± 0.079.

**Q.** With SKNWSEDDLQLLIVAVNLFPAGTNSRWEVIANYMNIHSSSGVKRTAKDVIGKA [K14V] as the variant, how does the abundance fitness read?
**A.** The abundance fitness was -0.196 ± 0.059.

**Q.** For SKNWSEDDLQLLIKAVNLFPAGTNSRWEVIANYMNIHSSSGVIRTAKDVIGKA [K43I], which abundance fitness is on record?
**A.** The abundance fitness was -0.147 ± 0.12.

**Q.** For SKNWSEDDLQLLIKAVNLFPAGTNSRWEVIANYMNIHNSSGVKRTAKDVIGKA [S38N], which abundance fitness is on record?
**A.** The abundance fitness was -0.162 ± 0.095.

**Q.** With SKNWSEDDLQLLIKAVNLFPAGTNSRWEVIANYMNIHKSSGVKRTAKDVIGKA [S38K] as the variant, how does the abundance fitness read?
**A.** The abundance fitness was -0.517 ± 0.079.

**Q.** For SKNWSEDDLQLLIKAVNLFPAGTNSRWEVIANYMNIHESSGVKRTAKDVIGKA [S38E], which abundance fitness is on record?
**A.** Its abundance fitness is -0.609 ± 0.081.

**Q.** Which abundance fitness does the source give for SKNWSEDDLQLLIKAVNLFPAGTNSRWEVIANYMNIHQSSGVKRTAKDVIGKA [S38Q] here?
**A.** The abundance fitness was -0.176 ± 0.091.

**Q.** For SKNWSEDDLQLLIKAVNLFPAGTNSRWEVIANYMNIHDSSGVKRTAKDVIGKA [S38D], which abundance fitness is on record?
**A.** The abundance fitness was -0.61 ± 0.084.

**Q.** Which abundance fitness does the source give for SKNWSEDDLQLLIKAVNLFPAGTNSRPEVIANYMNIHSSSGVKRTAKDVIGKA [W27P] here?
**A.** Its abundance fitness is -0.247 ± 0.082.

**Q.** Which abundance fitness does the source give for SKNWSEDDLQLLIKAVNLFPAGTNSRCEVIANYMNIHSSSGVKRTAKDVIGKA [W27C] here?
**A.** Its abundance fitness is -0.261 ± 0.095.

**Q.** With SKNWSEDDLQLLIKAVNKFPAGTNSRWEVIANYMNIHSSSGVKRTAKDVIGKA [L18K] as the variant, how does the abundance fitness read?
**A.** The abundance fitness was -0.268 ± 0.092.

**Q.** For SKNWSEDDLQLLIKAVNSFPAGTNSRWEVIANYMNIHSSSGVKRTAKDVIGKA [L18S], which abundance fitness is on record?
**A.** Its abundance fitness is -0.273 ± 0.072.

**Q.** With SKNWSEDDLQLLIKAVNFFPAGTNSRWEVIANYMNIHSSSGVKRTAKDVIGKA [L18F] as the variant, how does the abundance fitness read?
**A.** Its abundance fitness is -0.219 ± 0.085.

**Q.** For SKNWSEDDLQLLIKAVNMFPAGTNSRWEVIANYMNIHSSSGVKRTAKDVIGKA [L18M], which abundance fitness is on record?
**A.** The abundance fitness was 0.065 ± 0.095.

**Q.** Which abundance fitness does the source give for SKNWSEDDLQLLIKAVNLFPAGTNSRWEVIAFYMNIHSSSGVKRTAKDVIGKA [N32F] here?
**A.** The abundance fitness was -0.542 ± 0.14.

**Q.** Which abundance fitness does the source give for SKNWSEDDLQLLIKAVNLFPAGTNSRWEVIAIYMNIHSSSGVKRTAKDVIGKA [N32I] here?
**A.** The abundance fitness was -0.66 ± 0.11.

**Q.** With SKNWSEDDLQLLIKAVNLFMAGTNSRWEVIANYMNIHSSSGVKRTAKDVIGKA [P20M] as the variant, how does the abundance fitness read?
**A.** Its abundance fitness is -0.955 ± 0.094.

**Q.** For SKNWSEDDLQLLIKAVNLFCAGTNSRWEVIANYMNIHSSSGVKRTAKDVIGKA [P20C], which abundance fitness is on record?
**A.** The abundance fitness was -0.555 ± 0.078.

**Q.** With SKNWSEDDLQLLIKAVNLFVAGTNSRWEVIANYMNIHSSSGVKRTAKDVIGKA [P20V] as the variant, how does the abundance fitness read?
**A.** Its abundance fitness is -0.772 ± 0.074.

**Q.** Which abundance fitness does the source give for SKNWSEDDLQLLIKAVNLFPAGTNSRWKVIANYMNIHSSSGVKRTAKDVIGKA [E28K] here?
**A.** The abundance fitness was -0.237 ± 0.11.

**Q.** For SKNWSEDDLQLLIKAVNLFPAGTNSRWPVIANYMNIHSSSGVKRTAKDVIGKA [E28P], which abundance fitness is on record?
**A.** Its abundance fitness is -0.627 ± 0.12.

From the Human Domainome abundance scans (Beltran et al. 2025)
